Reference: patent US20120214748A1 (published 2012)
Bridge positions count the residues as written; N and C are the ends. Ends that are not written are not given here.

B1: M2-4G (peptide)
peptide: GICSRSLPPICIPD
modifications: disulfide 3-11 (inferred)
notes: Synthetic consensus peptide of the non-selective group, linear form; also called "NS" peptide; non-selective peptide
B2: M1-3E-Y12W (peptide)
peptide: GVCSRSLPPICWPD
modifications: disulfide 3-11 (inferred)
notes: The parent M1-3E was not tested as a synthetic peptide

target: T1, MASP-1 CCP1-CCP2-SP (human, UniProt P48740 298-699, limits assumed); assay: preliminary experiments, method not described
T1 construct: domain: CCP1-CCP2-SP; Recombinant fragment
T1 sequence (looked up): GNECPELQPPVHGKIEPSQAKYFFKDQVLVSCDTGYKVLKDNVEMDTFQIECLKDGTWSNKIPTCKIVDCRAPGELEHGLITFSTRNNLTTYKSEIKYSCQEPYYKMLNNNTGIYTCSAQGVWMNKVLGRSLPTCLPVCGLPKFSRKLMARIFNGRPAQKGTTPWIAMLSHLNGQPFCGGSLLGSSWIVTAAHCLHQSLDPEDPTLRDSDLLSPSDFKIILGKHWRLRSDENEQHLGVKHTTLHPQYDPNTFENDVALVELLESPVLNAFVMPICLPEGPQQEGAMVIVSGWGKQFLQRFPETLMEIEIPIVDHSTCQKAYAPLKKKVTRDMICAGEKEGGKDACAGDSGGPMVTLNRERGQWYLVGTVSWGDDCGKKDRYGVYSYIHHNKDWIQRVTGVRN

Binder | binding result
EVTCEPGTTFKDKCNTCRCGSDGKSAACTLKACPQ (other, UniProt O46162 57-91, looked up) [Schistocerca Gregaria Chymotrypsin Inhibitor (SGCI)] | no binding

target: T2, MASP-2 CCP1-CCP2-SP (human, UniProt O00187 298-686, limits assumed); assay: preliminary experiments, method not described
T2 construct: domain: CCP1-CCP2-SP; Recombinant fragment
T2 sequence (O00187 298-686 limits assumed): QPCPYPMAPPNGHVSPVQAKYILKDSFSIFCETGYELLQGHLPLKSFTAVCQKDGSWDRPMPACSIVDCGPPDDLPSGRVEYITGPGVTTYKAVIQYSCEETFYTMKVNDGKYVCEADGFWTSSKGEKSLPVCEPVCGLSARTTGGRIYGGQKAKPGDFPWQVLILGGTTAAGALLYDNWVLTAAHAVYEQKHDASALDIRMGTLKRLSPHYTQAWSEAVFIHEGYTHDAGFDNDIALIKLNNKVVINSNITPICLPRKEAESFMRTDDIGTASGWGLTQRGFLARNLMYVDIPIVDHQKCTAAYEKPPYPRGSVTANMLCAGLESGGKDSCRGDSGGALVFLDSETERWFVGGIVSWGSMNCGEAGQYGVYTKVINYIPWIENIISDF

Binder | binding result
EVTCEPGTTFKDKCNTCRCGSDGKSAACTLKACPQ (other, UniProt O46162 57-91, looked up) [Schistocerca Gregaria Chymotrypsin Inhibitor (SGCI)] | no binding

target: T1, MASP-1 CCP1-CCP2-SP; assay: enzyme inhibition, Z-L-Lys-SBzl substrate, tight-binding fit

Binder | Ki [nM]
cyclo(GICSRSLPPICIPD) (disulfide 3-11 (inferred), Backbone-cyclised form of M2-4G) [M2-4G cyclic] | 275
B1 | 65
B2 | 140
GMCSRSYPPVCIPD (disulfide 3-11 (inferred), Point mutant of M2-6E) [M2-6E-Y2M] | 4000

target: Trypsin; assay: as above
Sequence (P00760 24-246): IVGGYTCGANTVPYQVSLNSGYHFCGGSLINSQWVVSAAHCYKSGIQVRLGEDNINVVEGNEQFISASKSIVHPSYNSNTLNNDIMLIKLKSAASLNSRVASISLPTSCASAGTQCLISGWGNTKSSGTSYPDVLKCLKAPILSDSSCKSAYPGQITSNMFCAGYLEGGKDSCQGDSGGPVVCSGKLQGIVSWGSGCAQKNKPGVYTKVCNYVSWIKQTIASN

Binder | Ki [nM]
cyclo(GICSRSLPPICIPD) (disulfide 3-11 (inferred), Backbone-cyclised form of M2-4G) [M2-4G cyclic] | 350
B1 | 260
B2 | 170
GMCSRSYPPVCIPD (disulfide 3-11 (inferred), Point mutant of M2-6E) [M2-6E-Y2M] | 4000
GWCSRSYPPVCIPD (disulfide 3-11 (inferred), Point mutant of M2-6E) [M2-6E-Y2W] | 1700
GYCSRSIPPVCIPD (disulfide 3-11 (inferred), Point mutant of M2-6E) [M2-6E-Y7I] | 160

target: T2, MASP-2 CCP1-CCP2-SP; assay: as above

Binder | Ki [nM]
cyclo(GICSRSLPPICIPD) (disulfide 3-11 (inferred), Backbone-cyclised form of M2-4G) [M2-4G cyclic] | 750
B1 | 1030
B2 | 5000
GMCSRSYPPVCIPD (disulfide 3-11 (inferred), Point mutant of M2-6E) [M2-6E-Y2M] | 1500
GWCSRSYPPVCIPD (disulfide 3-11 (inferred), Point mutant of M2-6E) [M2-6E-Y2W] | 580
GYCSRSIPPVCIPD (disulfide 3-11 (inferred), Point mutant of M2-6E) [M2-6E-Y7I] | 7000

target: Thrombin; assay: enzyme inhibition, Z-Gly-Pro-Arg-pNa substrate, tight-binding fit

Binder | Ki [nM]
B1 | 10000
